Experimental data from article PMC11346345 (Cell reports, 2024).

Biological target: recombinant GP38 of CCHFV Afg09-2990 (Crimean-Congo hemorrhagic fever virus, …, UniProt E5FEZ4, strain)
Test: SPR

B1: ADI-58048 IgG (antibody, V domains shown)
VH: QLQLQESGPGLVKPSETLSLTCTVSGGSITTSHYYWGWIRQPPGKGLEWVGSMYYSGGIYYNPSLKGRVTISVDTSKNQFSLKLSSVTAADTAVYYCALADAPDDAFDIWGQGTMVTVSS
VL: DIQMTQSPSSLSAFVGDRVTITCRASQSISSYLNWYQQKPGKAPKLLIYAASTLQSGVPSRFSGSGSGTDFTLTISSLQSEDFATYYCQESYSIPFTFGPGTKVDIK
  fold reduction in binding: ~27 fold
